Experimental findings from publication PMC4380446 are described below.

In data set [1] the test system is haemagglutinin on whole H9N2 virus (Influenza A virus H9N2 (avian; strain not given in material)). The data set can be described thus: competition ELAA.
Data set [2] concerns purified haemagglutinin H9 (H9-HA) (Influenza A virus H9N2 (avian; strain not given in material)). The data set can be described thus: capillary electrophoresis.
In data set [3] the test system is haemagglutinin on whole H9N2 virus (Influenza A virus H9N2 (avian; strain not given in material)). The data set can be described thus: capillary electrophoresis.

The term Kd denotes the constant that tells how readily two partners part at equilibrium. A high value points to weaker binding. In data set [1], “GCTGCAATACTCATGGACAGCCTCCTGGGGTCAGGCTCAGACATTGATAAAGCGACATCGGTCTGGAGTACGACCCTGAA [A9]” yielded an inhibition of binding of 76.3 % inhibition. Moreover, the Kd in data set [2] worked out at 46.2 nM; in data set [3], 42.5 nM.
Consider “GCTGCAATACTCATGGACAGCGGGGGTCTCGCCCTCCCGGCGGCCTCGGCGAGCGTCGGCGTCTGGAGTACGACCCTGAA [A6]”, for which the Kd in data set [2] amounted to 20.6 nM.
